In JP2018076351A (dated 2018) one finds Kd data, which are given here for two molecules.

Assay [1] has as its target human PCSK9 (wild type) (human). The experiment in a line: KinExA, solution equilibrium, PCSK9-coated beads. In general terms: A kinetic exclusion assay measures how much of one partner remains free in solution.
In another assay the target is cynomolgus monkey PCSK9 (cynomolgus monkey, UniProt A0A7N9D9N8 150-747). Nature of the assay: KinExA, solution equilibrium, PCSK9-coated beads; KD adjusted for 50 % active cPCSK9.
The target in assay [2] is human PCSK9 (wild type) (human). Nature of the assay: Biacore at pH 6.0 (HBS-P with 0.01 % BSA); KD from nonlinear regression of competition curves, n=1. For orientation: In SPR one partner is held on a chip, and binding of the other changes the refractive index at the surface.

B1: 16F12 (antibody, V domains shown)
VH: QVHLVESGGGVVQPGRSLRLSCAASGFTFNSFGMHWVRQAPGKGLEWVALIWSDGSDEYYADSVKGRFTISRDNSKNTLYLQMNSLRAEDTAVYYCARAIAALYYYYGMDVWGQGTTVTVSS
VL: QSVLTQPPSVSAAPGQKVTISCSGSSSNIGNNFVSWYQQLPGTAPKLLIYDYNKRPSGIPDRFSGSKSGTSATLGITGLQTGDEADYYCGTWDSSLSAYVFGTGTRVTVLQ
Broadly, the Kd is the constant that tells how readily two partners part at equilibrium. On to B1, for which the figures for the dissociation constant (Kd) in the assay with human PCSK9 (wild type) [1], with cynomolgus monkey PCSK9 and with human PCSK9 (wild type) [2] were 0.015 nM, 0.016 nM and 0.029 nM, respectively.

B2: 31H4 (antibody, V domains shown)
VH: EVQLVESGGGLVKPGGSLRLSCAASGFTFSSYSMNWVRQAPGKGLEWVSSISSSSSYISYADSVKGRFTISRDNAKNSLYLQMNSLRAEDTAVYFCARDYDFWSAYYDAFDVWGQGTMVTVSS
VL: QSVLTQPPSVSGAPGQRVTISCTGSSSNIGAGYDVHWYQQLPGTAPKLLISGNSNRPSGVPDRFSGSKSGTSASLAITGLQAEDEADYYCQSYDSSLSGSVFGGGTKLTVLQ
As to B2, the Kd worked out at 0.003 nM with human PCSK9 (wild type) [1], 0.002 nM with cynomolgus monkey PCSK9 and 0.0125 nM with human PCSK9 (wild type) [2].
